Measured values reported in article PMC10724265 (2023).
Where no end group is shown, it is not given here.

B1: synthetic FAM134C-LIR peptide, non-phosphorylated form (peptide)
chain: LDTDAEGDDFELLDQSELSQ
modifications: synthetic peptide, non-phosphorylated; the exact peptide limits are not printed in the text (figure/supplement); limits taken as the UniProt LIR motif 445-450 plus 7 flanking residues on each side; terminal chemistry unknown

Experiments:
LC3B [1] = target: T1, LC3B (UniProt Q9GZQ8 1-120); assay: ITC
LC3B [2] = target: T1, LC3B; assay: ITC; phosphorylated LIR peptide

| Binder | Kd (LC3B [1]) [nM] | Kd (LC3B [2]) [nM] |
| --- | --- | --- |
| B1 | 1030 |  |
| LDTDAEGDDFELLDQSELSQ (also: phosphorylated close to the LIR motif, residues not given here) [synthetic FAM134C-LIR peptide, phosphorylated form] |  | 180 |
